Measurements as given in patent US20230277625A1 (SIMCHA IL 18, published 2023).

T1: IL-18 receptor (IL-18Rα / IL-18Rβ heterodimer) on HEK-Blue IL-18 reporter cells (UniProt Q13478 19-541; O95256 20-599, limits assumed)
T1 sequence (looked up) 1: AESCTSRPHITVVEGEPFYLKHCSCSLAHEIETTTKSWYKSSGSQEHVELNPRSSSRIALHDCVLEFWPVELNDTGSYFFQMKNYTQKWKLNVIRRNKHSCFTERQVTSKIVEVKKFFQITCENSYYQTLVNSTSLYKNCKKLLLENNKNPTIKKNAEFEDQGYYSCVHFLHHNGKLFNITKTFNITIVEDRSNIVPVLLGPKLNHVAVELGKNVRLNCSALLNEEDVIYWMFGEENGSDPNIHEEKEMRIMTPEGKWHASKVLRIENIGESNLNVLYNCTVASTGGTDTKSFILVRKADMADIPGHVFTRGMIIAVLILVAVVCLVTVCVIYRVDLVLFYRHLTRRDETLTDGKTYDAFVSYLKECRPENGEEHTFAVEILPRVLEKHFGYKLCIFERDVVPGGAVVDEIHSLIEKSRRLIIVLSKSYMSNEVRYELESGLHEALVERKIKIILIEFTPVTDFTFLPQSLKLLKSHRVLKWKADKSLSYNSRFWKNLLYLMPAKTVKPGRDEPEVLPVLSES
T1 sequence (looked up) 2: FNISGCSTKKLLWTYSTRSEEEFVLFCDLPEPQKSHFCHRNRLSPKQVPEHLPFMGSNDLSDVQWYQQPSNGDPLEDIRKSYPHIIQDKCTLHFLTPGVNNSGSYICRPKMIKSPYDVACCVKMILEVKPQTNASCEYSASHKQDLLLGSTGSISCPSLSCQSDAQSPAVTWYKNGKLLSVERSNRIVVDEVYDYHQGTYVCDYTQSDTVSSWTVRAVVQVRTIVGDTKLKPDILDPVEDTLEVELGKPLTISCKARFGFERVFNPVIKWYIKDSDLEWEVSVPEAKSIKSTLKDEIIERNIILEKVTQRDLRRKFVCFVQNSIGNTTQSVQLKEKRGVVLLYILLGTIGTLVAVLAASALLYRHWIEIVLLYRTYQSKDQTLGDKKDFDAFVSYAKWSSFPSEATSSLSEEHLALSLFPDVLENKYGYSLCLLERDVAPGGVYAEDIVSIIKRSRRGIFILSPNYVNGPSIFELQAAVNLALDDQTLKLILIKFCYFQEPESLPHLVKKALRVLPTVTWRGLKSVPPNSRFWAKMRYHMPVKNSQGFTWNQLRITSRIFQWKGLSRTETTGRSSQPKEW

T2: Human IL-18BP (amino acids 31-194), biotinylated (human, UniProt O95998 31-194, biotin on the AviTag (BirA ligase) where used biotinylated)
T2 construct: Soluble decoy receptor; also called hIL-18BP; recombinant IL-18BP
T2 sequence: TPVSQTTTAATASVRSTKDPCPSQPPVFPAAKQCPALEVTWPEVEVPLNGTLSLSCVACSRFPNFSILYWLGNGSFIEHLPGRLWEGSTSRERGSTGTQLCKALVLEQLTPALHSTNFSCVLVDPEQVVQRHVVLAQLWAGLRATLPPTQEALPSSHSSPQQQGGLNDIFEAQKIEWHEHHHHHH


biological target: T1, IL-18 receptor (IL-18Rα / IL-18Rβ …); test: cell-based or functional assay

Row | Binder | EC50-#1 (M), HEK-Blue reporter | EC50-#2 (M), HEK-Blue reporter
1 | SEQ ID NO: 6 (SEQ ID NO: 89 plus C38S/C68S) (ligand) YFGKLESKLSVIRNLNDQVLFIDQGNRPLFEDMTDSDSRDNAPRTIFIISKYSDSLARGLAVTISVKSEKISTLSCENKIISFKEMNPPDNIKDTKSDIIFFQRDVPGHSRKMQFESSSYEGYFLACEKERDLFKLILKKEDELGDRSIMFTVQNED | 1.96e-10 M | 1.3e-10 M
2 | SEQ ID NO: 21 (SEQ ID NO: 89 plus C38S/C68N) (ligand) YFGKLESKLSVIRNLNDQVLFIDQGNRPLFEDMTDSDSRDNAPRTIFIISKYSDSLARGLAVTISVKNEKISTLSCENKIISFKEMNPPDNIKDTKSDIIFFQRDVPGHSRKMQFESSSYEGYFLACEKERDLFKLILKKEDELGDRSIMFTVQNED | 1.28e-10 M | 1.24e-10 M
3 | SEQ ID NO: 17 (SEQ ID NO: 89 plus C38S/C68A) (ligand) YFGKLESKLSVIRNLNDQVLFIDQGNRPLFEDMTDSDSRDNAPRTIFIISKYSDSLARGLAVTISVKAEKISTLSCENKIISFKEMNPPDNIKDTKSDIIFFQRDVPGHSRKMQFESSSYEGYFLACEKERDLFKLILKKEDELGDRSIMFTVQNED | 1.41e-10 M | 1.09e-10 M
4 | SEQ ID NO: 18 (SEQ ID NO: 89 plus C38S/C68V) (ligand) YFGKLESKLSVIRNLNDQVLFIDQGNRPLFEDMTDSDSRDNAPRTIFIISKYSDSLARGLAVTISVKVEKISTLSCENKIISFKEMNPPDNIKDTKSDIIFFQRDVPGHSRKMQFESSSYEGYFLACEKERDLFKLILKKEDELGDRSIMFTVQNED | 5.19e-11 M | 4.48e-11 M
5 | SEQ ID NO: 16 (SEQ ID NO: 89 plus C38S/C68G) (ligand) YFGKLESKLSVIRNLNDQVLFIDQGNRPLFEDMTDSDSRDNAPRTIFIISKYSDSLARGLAVTISVKGEKISTLSCENKIISFKEMNPPDNIKDTKSDIIFFQRDVPGHSRKMQFESSSYEGYFLACEKERDLFKLILKKEDELGDRSIMFTVQNED | 2.05e-10 M | 1.54e-10 M
6 | SEQ ID NO: 20 (SEQ ID NO: 89 plus C38S/C68E) (ligand) YFGKLESKLSVIRNLNDQVLFIDQGNRPLFEDMTDSDSRDNAPRTIFIISKYSDSLARGLAVTISVKEEKISTLSCENKIISFKEMNPPDNIKDTKSDIIFFQRDVPGHSRKMQFESSSYEGYFLACEKERDLFKLILKKEDELGDRSIMFTVQNED | 1.35e-10 M | 1.62e-10 M

biological target: T2, Human IL-18BP (amino acids 31-194), …; test: on-yeast binding isotherm (flow cytometry), drawn summary table, column IL18BP (KD)

Row | Binder | Kd
7 | SEQ ID NO: 94 (human D2D IL-18 variant hD2D-5F10) (ligand, Engineered decoy-to-the-decoy variant) HFGKLESKLSVIRNLNGQVLFIDQGNRPLFADMEASPCRDNAPRTIFIISFYKDSQPRGLAVTISVKCEKISTLSCENKIISFKEMNPPDNIKDTKSDIIFFLRSVPGHDNKMQFESSSYEGYFLACEKERDLFKLILKKEDELGDRSIMFTVQNED | 6.4 nM
8 | SEQ ID NO: 99 (human D2D IL-18 variant hD2D-5F01) (ligand, Engineered decoy-to-the-decoy variant) HFGKLESKLSVIRNLNGQVLFIDQGNRPLFTDMTSSDCRDKAPRTIFIISFYKDSQPRGLAVTISVKCEKISTLSCENKIISFKEMNPPDNIKDTKSDIIFFLRSVPGPDNKFQFESSSYEGYFLACEKERDLFKLILKKEDELGDRSIMFTVQNED | 4.8 nM
9 | SEQ ID NO: 124 (human D2D IL-18 consensus hD2D-CS2) (ligand, Engineered decoy-to-the-decoy variant) YFGKLESKLSVIRNLNGQVLFIDQGNRPLFADMTSSDCRDNAPRTIFIISFYKDSQPRGMAVTISVKCEKISTLSCENKIISFKEMNPPDNIKDTKSDIIFFLRSVPGHDNKMQFESSSYEGYFLACEKERDLFKLILKKEDELGDRSIMFTVQNED | 7.9 nM
10 | SEQ ID NO: 101 (human D2D IL-18 variant hD2D-5E08) (ligand, Engineered decoy-to-the-decoy variant) YFGKLESKLSVIRNLNGQVLFIDQGNRPLFTDMTASPCRDNAPRTIFIISFYKDSQPRGLAVTISVKCEKISTLSCENKIISFKEMNPPDNIKDTKSDIIFFLRSVPGHDNKIQFESSSYEGYFLACEKERSLFKLILKKEDELGDRSIMFTVQNED | 8.8 nM
11 | SEQ ID NO: 125 (human D2D IL-18 consensus hD2D-CS3) (ligand, Engineered decoy-to-the-decoy variant) YFGKLESKLSVIRNLNGQVLFIDQGNRPLFADMESSDCRDNAPRTIFIISFYKDSQPRGLAVTISVKCEKISTLSCENKIISFKEMNPPDNIKDTKSDIIFFLRSVPGHDNKMQFESSSYEGYFLACEKERDLFKLILKKEDELGDRSIMFTVQNED | 8.9 nM
12 | SEQ ID NO: 98 (human D2D IL-18 variant hD2D-5F02) (ligand, Engineered decoy-to-the-decoy variant) HFGKLESKLSVIRNLNGQVLFIDQGNRPLFGDMEASPCRDNAPRTIFIISFYKDSQPRGMAVTISVKCEKISTLSCENKIISFKEMNPPDNIKDTKSDIIFFIRSVPGADNKLQFESSSYEGYFLACEKERDLFKLILKKEDELGDRSIMFTVQNED | 5.4 nM
13 | SEQ ID NO: 120 (human D2D IL-18 variant hD2D-5B02) (ligand, Engineered decoy-to-the-decoy variant) YFGKLESKLSVIRNLNGQVLFIDQGNRPLFADMTSKRCRDNAPRTIFIISLYKDSQPRGFAVTISVKCEKISTLSCENKIISFKEMNPPDNIKDTKSDIIFFIRSVPGHDNKIQFESSSYEGYFLACEKERDLFKLILKKEDELGDRSIMFTVQNED | 4.2 nM
14 | SEQ ID NO: 123 (human D2D IL-18 consensus hD2D-CS1) (ligand, Engineered decoy-to-the-decoy variant) YFGKLESKLSVIRNLNGQVLFIDQGNRPLFADMTDSDCRDNAPRTIFIISMYKDSQPRGMAVTISVKCEKISTLSCENKIISFKEMNPPDNIKDTKSDIIFFLRSVPGHDNKMQFESSSYEGYFLACEKERDLFKLILKKEDELGDRSIMFTVQNED | 5.9 nM
